Results: patent US20160319321
Where a chain is given by its changes, count along the chain named. Numbers in names are those of the source.

Tests used:
[1] = molecular target: T1, Lys(Dnp)-DWGDR-HGEGT-Lys(Abz)amide
T1 chain: KDWGDRHGEGTK

[2] = molecular target: T2, Lys(Dnp)-DLGDR-HGEGT-Lys(Abz)amide
T2 chain: KDLGDRHGEGTK

[3] = molecular target: T3, DVKPGQPLYDDDDK-[Arg34]GLP-1(9-37)
T3 chain: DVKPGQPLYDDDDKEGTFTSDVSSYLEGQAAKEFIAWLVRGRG

[4] = molecular target: T4, DVKPEQPLYDEGDR-[Arg34]GLP-1(9-37)
T4 chain: T3 chain with G5E, D11E, D12G, K14R

[5] = molecular target: T5, Lys(Dnp)-DQGDR-EGTFT-Lys(Abz)amide
T5 chain: KDQGDREGTFTK

[6] = molecular target: T6, Lys(Dnp)-ELGDR-HAEGT-Lys(Abz)amide
T6 chain: KELGDRHAEGTK

[7] = molecular target: T7, Lys(Dnp)-KDEGDR-HAEGT-Lys(Abz)amide
T7 chain: KKDEGDRHAEGTK

[8] = molecular target: T8, Lys(Dnp)-QEGDR-EGTFT-Lys(Abz)amide
T8 chain: KQEGDREGTFTK

B1: bovine Enterokinase light chain variant (C112A, L134K, I135K) (protein)
chain: IVGGSDSREGAWPWVVALYFDDQQVCGASLVSRDWLVSAAHCVYGRNMEPSKWKAVLGLHMASNLTSPQIETRLIDQIVINPHYNKRRKNNDIAMMHLEMKVNYTDYIQPIALPEENQVFPPGRICSIAGWGAKKYQGSTADVLQEADVPLLSNEKCQQQMPEYNITENMVCAGYEAGGVDSCQGDSGGPLMCQENNRWLLAGVTSFGYQCALPNRPGVYARVPRFTEWIQSFLH
Protein B1 has an Activity (%) [1] of 338%, an Activity (%) [2] of 438% and an Activity (%) [3] of 136%. It also gave an Activity (%) [4] of 803%, an Activity (%) [5] of 412% and an Activity (%) [6] of 659%. The Activity (%) [7] was 175% and the Activity (%) [8] was 411%.
